# Experimental data published in publication PMC9361823, “The α- and β-Subunit Boundary at the Stem of the Mushroom-Like α3β3-Type Oxygenase Component of Rieske Non-Heme Iron Oxygenases Is the Rieske-Type Ferredoxin-Binding Site” (Applied and Environmental Microbiology, 2022).
# B1: β-subunit of CumDO-O (CumA2) (natural protein, Pseudomonas fluorescens IP01, UniProt Q51744 1-186, looked up)
# chain: MTSADLTKPIEWPEMPVSLELQNAVEQFYYREAQLLDYQNYEAWLALLTQDIQYWMPIRTTHTSRNKAMEYVPPGGNAHFDETYESMRARIRARVSGLNWTEDPPSRSRHIVSNVIVRETESAGTLEVSSAFLCYRNRLERMTDIYVGERRDILLRVSDGLGFKIAKRTILLDQSTITANNLSQFF
# notes: CumA2, β-subunit of CumDO-O (cumene dioxygenase oxygenase component), not tagged; also called 21-kDa β-subunit
# B2: α-subunit of CumDO-O (CumA1) (natural protein)
# chain: not shown
# notes: CumA1, α-subunit of CumDO-O (cumene dioxygenase oxygenase component); also called 51-kDa α-subunit; not shown: His6, C-terminal, kept
# Molecular target: the molecule itself
# Assay: SEC; α (His6) and untagged β co-expressed in E. coli and co-purified by metal chelation and gel filtration (Superdex200; 20 mM Tris-HCl, 0.2 M NaCl, 10% glycerol, pH 7.4); 150- to 200-kDa complex in solution (Fig. S1; the text does not say how the size was estimated)
row,Protein,binding result
1,B1,binds
2,B2,binds
